Test: soluble on expression in E. coli; label from the status in PepcDB or PDB records

Sequence	soluble on expression in E. coli
QLGKDHAIVERNEKIDDAFKSDPASYQSVYDAQGRIKDGQEWMRVSLKGRFDANNEVLLRMRPVEGTPAYQSLVPFTLESGESLLINRGFVPGDAANVPELAAVPTETVTIVAHARANEGMPASAPMSAHGYQQVYGINTTQISEITHTTLGTDFAQLSQDQPGVLNAMPIPQLDRGNHLSYGLQ	not soluble
IKDFDYNIGFNMSTTKNKVVELSDADQVLQGEGLKYGTEHFPTETRVGKPIGAFYLYRTDGIFQSMDEVNAHVNKDGQLLQPNAQPGDIRFKDLDGNGSIDAGDKEYCGSGIPTLEANLNLSFGYKGFDLSIVLGSAWNFKLYNGNKYFYEGMNSKSNMLKSTLNAWTPDNRNTDVPRAVYQDPNGNMKESDRFLENGDFVRLRQAQLGYTLPKSLMQKFYIEKLRFYVSGENLFTITGYDGIDPEFSRASVLNTGVDKLIYPFTRSFTVGAQLTF	not soluble
MNFESTRRRLTEKQADTVDRLTRAAVEVLREEGFAGLTVRSVAGIAGVAPATAYTYFSSKEHLVAEVFWRRLAGSPQPADDGLDRTGRVVAVLRHIALLVADEPELAGAVTNALLGRDPDVEHLRARIGLEIRDRLATALGEGHDPDVLEALELLYAGGLVRAGMGYGSYAQFADRLETSAKLILE	not soluble
GMSEENKIGTYQFVAEPFHVDFNGRLTMGVLGNHLLNCAGFHASDRGFGIATLNEDNYTWVLSRLAIELDEMPYQYEKFSVQTWVENVYRLFTDRNFAVIDKDGKKIGYARSVWAMINLNTRKPADLLALHGGSIVDYICDEPCPIEKPSRIKVTSNQPVATLTAKYSDIDINGHVNSIRYIEHILDLFPIELYQTKRIRRFEMAYVAESYFGDELSFFCDEVSENEFHVEVKKNGSEVVCRSKVIFE	soluble
MSLIELRDKTILIDGRPRLVLSGEVHYFRLRREDWQDRLDKLKAAGCNTVASYIPWLCHETVEGRIDLDGRSRPELDLGAFIDLCRANGLWFIARPGPFVMAELKNEGLPYWLYEKHPEIVPVGWDGKPATTHTVDYLAPGFLDAARRWYDAVMAVITPRLQPGGGNVIALQLDNEIGMLSWLSNCPDLTENVLADFAAWLKVRHRPESLRKRYPFDPDEPEARRAGIRSPAESYALALLRDLGHYMRDRFARYVATLRSWAETAGIRGIPFVVNIHGTGGGRALSFPIGISQLYPSYTQDFGYLSGSDFYLGNLTFDNFQDLYLCNAFMEAVHRPEQPLASMEFECGDGNYGNTYGNRLDPSAADFKARMCLAQGARLLNYYLFTGGHNYRLDPPPPDGDGRIAFTGERHGFAAPVDPDGRLNYSYPRLANLTRTVAAVADKLAAMWEEHDRVAFGFIPDYFMTESRHPASAAMATIVRNLEANRGPSAWETMARAMLLGGYRFGAVDLQNRPLDVKTTPVLALGSARYMDTAVQRKLADWLSAGGGLLLYGEVPLYGMEGEPCTLLAEALGTEISGFRQASERYFLALAADGWARPRPEVRSHFAQTFAAPLAEALLRVCDTGEICGFETAVGKGRAVVIGTAYPCDIALFRTALERLGAVAALRHDCENHGIFMTSTANAAGERFIHLLNLDGFDKRFHLYEHGRPLFDGHEIELRARDGVMLPLAMREGHHHHHH	not soluble
MAGDPMRVEVGQIVNTHGIKGEIKVKSNSDFTDVRFQPGQVLTVVHNNNDLEYTVKSHRVHKGLHMLTFEGINNINDIEHLKGSSIYQERDHEDIVLEENEFYYSDIIGCTVFDDQETPIGRVINIFETGANDVWVIKGSKEYLIPYIADVVKEVDVENKKIIITPMEGLLDLEHHHHHH	soluble
MLSSKEVYARLDAILPSSVDREDAESNLNAGEIEYAITALLDDAYTSVGLSDAVVSLIRENYDDGPVIDMLDALLYFQKLNSGGDAVRMQR	not soluble
MGHHHHHHSHMSLDINQIALHQLIKRDEQNLELVLRDSLLEPTTTVVEMVAELHRVYSAKNKAYGLFNEESELAQALRLQRQGEEDFLAFSRAATGRLRDELAKYPFADGGIVLFCHYRYLAVEYLLVTVLNNLSSMRVNENLDINPTHYLDINHADIVARIDLTEWETNPQSTRYLTFLKGRVGRKVADFFMDFLGASEGLNAKAQNRGLLQAVDDFTAEAQLDKAERQNVRQQVYSYCNEQLQAGEEIELESLSKELSGVSEVSFSEFTAEKGYELEESFPADRSTLRQLTKYAGSGGGLTINFDAMLLGERIFWDPATDTLTIKGTPPNLRDQLQRRTSGGK	soluble
MTAVVSNREEDSMNNEPSLSGRAIIGLIYPPPDIRTIVDKTARFAAKNGVDFENKIREKEAKNPKFNFLSITDPYHAYYKKMVYDFSEGRVEAPKVPQAVKEHVKKAEFVPSAPPPAYEFSADPSTINAYDLDLIRLVALFVARNGRQFLTQLMTREARNYQFDFLKPAHCNFTYFTKLVDQYQKVLVPSTNVVAQLQDDATNKKRLIEDINYRVSWEKHQKGLKDREEAEAEKERQAYASIDWHDFVVVQTVDFQPGDTSQLPPLCTPKDVGARILLEARNEMQKAAAEMQEMDMEESDSDDEDAVQAPEAPAFTAPLPPTKQKDVIVRDYDPKRNVTQKPKAVENWIISPLTGERIPSDKLAEHVRYNTVDSQYKEDRDRHIGERSTEEPVLALGADISRNLGNFAERRTDIFGVGGEQTMIGKKLGEEDNSQQGQNKLIWDGTEETRDMITRAVQNKVTLDQQINEIHRQHGFVADPSKEKIGAQQVPRHQSTQGNVTITQGITNIPGQMPSGWPPVPPMGMPGMPNQALPPIRQMDFGGGPPAKRPRTEDDLIPEADWLKKVNGAISLNVHLPQAPEHGMDGSIVQFTIQVTAPMSELKQQIQDRYGMPVGKQKLMSDGLFVKDNMSSAFYNLADRTAIYLQVKERGGKKK	not soluble
MILDVDYITEEGKPVIRLFKKENGKFKIEHDRTFRPYIYALLRDDSKIEEVKKITGERHGKIVRIVDVEKVEKKFLGKPITVWKLYLEHPQDVPTLREKVREHPAVVDIFEYDIPFAKRYLIDKGLIPMEGEEELKILAFDIETLYHEGEEFGKGPIIMISYADENEARVITWKNIDLPYVESVSTEKEMIKRFLRIIREKDPDIIVTYNGDSFDFPYLAKRAEKLGIKLTIGRDGSEPKMQRIGDMTAVEVKGRIHFDLYHVIRTTINLPTYTLEAVYEAIFGKPKEKVYADEIAKAWESGENLERVAKYSMEDAKATYELGKEFLPMEIQLSRLVGQPLWDVSRSSTGNLVEWFLLRKAYERNEVAPNKPSEEEYQRRLRESYTGGFVKEPEKGLWENIVYLDYKSLYPSIIITHNVSPDTLNLEGCKNYDIAPQVGHKFCKDIPGFIPSLLGHLLEERQKIKTKMKETQDPIEKILLDYRQKAIKLLANSFYGYYGYAKARWYCKECAESVTAWGRKYIELVWKELEEKFGFKVLYIDTDGLYATIPGGESEEIKKKALEFVKYINSKLPGLLELEYEGFYKRGFFVTKKRYAVIDEEGKVITRGLEIVRRDWSEIAKETQARVLETILKHGDVEEAVRIVKEVIQKLANYEIPPEKLAIYEQITRPLHEYKAIGPHVAVAKKLAAKGVKIKPGMVIGYIVLRGDGPISNRAILAEEYDPKKHKYDAEYYIENQVLPAVLRILEGFGYRKEDLRYQKTRQVGLTSWLNIKKS	soluble
MGSHHHHHHDITSLYKKAGSAAAVLEENLYFQGSFTMLHEIPKSEILKELKRIGAKRVLIQSPEGLRREAEELAGFLEENNIEVFLHGEINYGACDPADREAKLVGCDALIHLGHSYMKLPLEVPTIFVPAFARVSVVEALKENIGEIKKLGRKIIVTTTAQHIHQLKEAKEFLESEGFEVSIGRGDSRISWPGQVLGCNYSVAKVRGEGILFIGSGIFHPLGLAVATRKKVLAIDPYTKAFSWIDPERFIRKRWAQIAKAMDAKKFGVIVSIKKGQLRLAEAKRIVKLLKKHGREARLIVMNDVNYHKLEGFPFEAYVVVACPRVPLDDYGAWRKPVLTPKEVEILLGLREEYEFDEILGGPRESDEPFGISIHSTR	soluble
MGSDKIHHHHHHMTKSLNGLRILNTRPREQAQVLNKKIIESGGIPIDCPTMEIMASETNWINNLPDLTSVNQAIFVSTNAVRYFMMELASKNINWPNSIRVTAIGKGTSRVLNEFNIQVSDVPELPDSEHLLTLNSLQQIRNQTILLVKGEGGRQLIEEYLMLKGAKLCLLSVYKRVMPAIDQEFINSLWRDDLVDIILLTSEQSIHNLFKMFSIEGQMWLQNKPCLVISDRLAKVASLFGIKKILISHPERMIGALFDYKD	not soluble
MGIAEWRYQDVPEKLWPIQPLRDFWGINKRTEKKLNKRGIFTIGDLAKYPYHYLKRDFGVLGIDMHLHANGIDQSKLEHHHHHH	not soluble
